Results on five molecules are retold here after patent US20130310265A1, “METHODS OF PREPARING CYCLIC PEPTIDES AND USES THEREOF” (NORTH CAROLINA STATE UNIVERSITY, priority 2012, published 2013).

Test [1] addresses T1, Neutravidin (Gallus gallus, UniProt P02701). Briefly: Chromatographic comparison of cyclic depsipeptide and cyclic peptide resins on column. As to conditions: Toyopearl resin column, binding PBS pH 7.4, elution 0.2M Glycine pH 2.5, absorbance 280 nm. Here is the method:
Thirty-five milligrams of cyclo[Lac-A-DRASPY-E]-Toyopearl resin and cyclo[A-A-DRASPY-E]-Toyopearl (SEQ ID NO:21, 29) resin were packed in a 30 mm×2.1 mm I.D. Microbore column (0.1 mL) and swollen with 20% v/v methanol. One hundred microliters of feed sample, namely Neutravidin 5 mg/mL in PBS pH 7.4, was loaded onto the column at a flow rate of 0.05 mL/min (87 cm/h). The column was washed with 2 mL of equilibration buffer at a flow rate of 0.2 mL/min (348 cm/h). Elution was then performed with 4 mL of 0.2M glycine buffer pH 2.5 at the flow rate of 0.4 mL/min (696 cm/h). Cleaning and regeneration were performed by 4 mL of 0.85% phosphoric acid. The effluent was monitored by absorbance at 280 nm. Fractions were collected and concentrated five times by centrifugation at 4° C., 20817×g for 30 min using an Amicon® Ultra centrifugal filter (3000 MWCO, Ultracel®, Millipore, Billerica, Mass., USA).
Cyclic depsipeptides are present in nature as very selective ligands and enzyme substrates. In many cases, however, the depside (ester) bond is found to play an active role in their biological activity and the homodetic cyclic peptide version of the same sequence can partially or completely loose the target affinity. […]

Test [2] has as its target T1, Neutravidin. Briefly: Screening simulation by the Mondorf-Carbonell radiological procedure with 14C-radiolabeled Neutravidin. The class given is binding. As to conditions: 10 mg of 50:50 mix of ligand resin and negative control resin, PBS, 5% 14C-radiolabeled Neutravidin, washed with PBS 0.2M NaCl 0.1% Tween 20, film five days. An excerpt:
A solid phase library of reversible cyclic peptides synthesized as explained in sections 5.2 and 5.3 can be screened for on-bead ligands that bind to a target biological. […] The selected beads are then subjected to the alkaline treatment reported in section 5.7. See Mondorf and Carbonell 1998.
Neutravidin was radiolabeled according to the procedure reported by Mondorf et al. using ^14C formaldehyde by reductive amination. The prospected extent of radiolabeling was 5%. Mondorf Carbonell 1998.
Two aliquots of cyclo[Lac-A-DRASPY-E]-HMBA-ChemMatrix resin and cyclo[Lac-A-VVWVV-E]-HMBA-ChemMatrix (SEQ ID NO:20-21) resin and were mixed in a 50:50 proportion. 10 mg of the resin mix was swollen in 20% methanol in water for 30 min and then rinsed with PBS, pH 7.4 (3×5 min). The resin slur was then mixed with 200 μl of 5 mg/mL ^14C-labelled Neutravidin. After 2 hrs of incubation the supernatant was decanted and the resin was washed with PBS buffer containing 0.2M NaCl and 0.1% (w/v) Tween 20 until the radioactivity reached the baseline level. […]
(§1) The screening procedure followed the method set forth in sections 5.5 and 6.5. […] A volume of 250 mL of washing solution was necessary in order for the radioactivity to reach the baseline level. […] In both cases, the difference between the levels of radioactivity carried by the resin was enough to discriminate the ligand resin beads from the negative control beads.

Test [3] concerns the target T2, Neutravidin (UniProt P02701 25-152).
T2 construct: In the bead screening it was radiolabelled with 14C formaldehyde by reductive amination (prospected extent 5%); In the column runs it was unlabelled, 5 mg/mL in PBS pH 7.4; also called 14C-labelled Neutravidin; target protein
Put plainly: radiological on-bead screening (autoradiography of beads in agarose). Here is the method:
Two aliquots of cyclo[Lac-A-DRASPY-E]-HMBA-ChemMatrix resin and cyclo[Lac-A-VVWVV-E]-HMBA-ChemMatrix (SEQ ID NO:20-21) resin and were mixed in a 50:50 proportion. 10 mg of the resin mix was swollen in 20% methanol in water for 30 min and then rinsed with PBS, pH 7.4 (3×5 min). The resin slur was then mixed with 200 μl of 5 mg/mL ¹⁴C-labelled Neutravidin. After 2 hrs of incubation the supernatant was decanted and the resin was washed with PBS buffer containing 0.2M NaCl and 0.1% (w/v) Tween 20 until the radioactivity reached the baseline level. The washed resin was then mixed with 20 mL of 1% low melting agarose solution. The mixture was swirled to form a uniform suspension and then the slurry was poured on 16×18 cm gelbond film to form a monolayer of beads. This gel was air-dried overnight in a hood. The dried agarose gel was then exposed to photographic film for 5 days at room temperature. The photographic film was then developed, the dark spot located on the film and the corresponding beads selected.
as §1

Bridges are numbered along the chain shown (N, C = ends). Where no end group is shown, it is not given here. [ ]: non-standard residue; d: D form. Lac = C[C@H](O)C(=O)O

T1 sequence (P02701 25-152): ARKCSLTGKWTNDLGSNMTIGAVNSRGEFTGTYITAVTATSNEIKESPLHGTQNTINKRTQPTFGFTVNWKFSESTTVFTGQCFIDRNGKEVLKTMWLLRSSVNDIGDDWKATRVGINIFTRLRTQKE
T2 sequence (P02701 25-152): as above

Take “cyclo[A-A-DRASPY-E] (AADRASPYE-{Toyopearl AF‑Amino‑650M resin}; lactam N-9; not fully specified; printed as cyclo[A-A-DRASPY-E]) [cyclo[A-A-DRASPY-E]-Toyopearl, homodetic cyclic peptide analogue of DRASPY depsipeptide on Toyopearl resin]”: the “binding chromatogram, cyclic depsipeptide vs cyclic peptide version of the same ligand sequence (FIG. 35)” value in test [1] was “no difference”.

“cyclo[Lac-A-DRASPY-E] [cyclo[Lac-A-DRASPY-E]-HMBA-ChemMatrix]”: in test [2], the “amount of radiolabeled target protein bound by resin beads (dark spot on developed radiographic film)” value is “bound a sufficient amount of radiolabeled target protein to impress a dark spot”.

With “cyclo[Lac-A-DRASPY-E] [cyclo[Lac-A-DRASPY-E]-Toyopearl]”, in test [1], the “binding chromatogram, cyclic depsipeptide vs cyclic peptide version of the same ligand sequence (FIG. 35)” value was “no difference”.

For “cyclo[Lac-A-VVWVV-E] ([Lac]AVVWVVE; bridge N-8; not fully specified (C-terminus, bridges); printed as cyclo[Lac-A-VVWVV-E]) [cyclo[Lac-A-VVWVV-E]-HMBA-ChemMatrix]”, in test [2], the “amount of radiolabeled target protein bound by resin beads (dark spot on developed radiographic film)” value is “bound a sufficient amount of radiolabeled target protein to impress a dark spot”.

B1: cyclo[Lac-A-VVWVV-E] (peptide)
peptide: [Lac]AVVWVVE
modifications: bridge N-8; not fully specified (C-terminus, bridges); printed as cyclo[Lac-A-VVWVV-E]
notes: also called cyclo[Lac-A-VVWVV-E]-HMBA-ChemMatrix; negative control resin
As for B1, in test [3], the binding result is “no binding”.
